Publication PMC4039143, “Polyubiquitylation of AMF requires cooperation between the gp78 and TRIM25 ubiquitin ligases” (Oncotarget, 2013)

Target: T1, His-tagged AMF expressed in and purified from E. coli (human, UniProt P06744 1-558)
T1 construct: autocrine motility factor (AMF) / phosphoglucose isomerase (PGI); the E. coli expression construct is not described; also called his-AMF; PGI; source: E. coli (BL21), purified (Ni-NTA agarose, PD-10 desalting); not shown: His, N-terminal, kept
Assay: pull-down; GST fusions held on glutathione-agarose and washed; incubated with purified his-AMF or TRIM25 in buffer D (50 mM Tris/HCl pH 7.5, 100 mM NaCl, 1 mM DTT, 0.1% Tween20), 3 hr at 4 °C; retained protein detected by immunoblot
Details: both partners purified

binding result: binds
B1: GST fusion bearing the entire C-terminal (cytoplasmic) domain of gp78 (domain or fragment, human, UniProt Q9UKV5 309-643, looked up)
chain: IRRHKNYLRVVGNMEARFAVATPEELAVNNDDCAICWDSMQAARKLPCGHLFHNSCLRSWLEQDTSCPTCRMSLNIADNNRVREEHQGENLDENLVPVAAAEGRPRLNQHNHFFHFDGSRIASWLPSFSVEVMHTTNILGITQASNSQLNAMAHQIQEMFPQVPYHLVLQDLQLTRSVEITTDNILEGRIQVPFPTQRSDSIRPALNSPVERPSSDQEEGETSAQTERVPLDLSPRLEETLDFGEVEVEPSEVEDFEARGSRFSKSADERQRMLVQRKDELLQQARKRFLNKSSEDDAASESFLPSEGASSDPVTLRRRMLAAAAERRLQKQQTS
notes: Expression vector provided by A Weissman; also called GST-gp78C; gp78C; source: E. coli (BL21), lysate applied to glutathione-agarose and washed; also purified on glutathione-agarose
